Assay results: patent US20020103133A1
Non-standard residues stand in square brackets, D forms with d. Dox = doxorubicin conjugated to the C-terminal Leu; hPhe = N[C@@H](CCc1ccccc1)C(=O)O

Molecular target: MMPs of HT1080 cells
Assay: cell-based or functional assay

Question: Which Fraction of L-Dox, 0 hours, minus MMP inhibitor does the source give for Ac-PLG[hPhe]K(Me2)L-Dox [acetyl-P-L-G-Hof-(N,N-dimethyl-K)-L-Dox] here?
Answer: 0

Question: What about the Fraction of L-Dox, 0 hours, plus MMP inhibitor of the same binder?
Answer: 0

Question: And the Fraction of L-Dox, 3 hours, minus MMP inhibitor?
Answer: 0.1

Question: What about the Fraction of L-Dox, 3 hours, plus MMP inhibitor of the same binder?
Answer: 0.004

Question: And the Fraction of L-Dox, 5.5 hours, minus MMP inhibitor?
Answer: 0.2

Question: And the Fraction of L-Dox, 5.5 hours, plus MMP inhibitor?
Answer: 0.01

Question: And the Fraction of L-Dox, 8 hours, minus MMP inhibitor?
Answer: 0.46

Question: What about the Fraction of L-Dox, 8 hours, plus MMP inhibitor of the same binder?
Answer: 0.02
